The values that follow come from patent US6008193A, “Methods of using human von Willebrand factor GPIb binding domain polypeptides” (Bio-Technology General Corp., priority 1995, dated 1999).

Several values for one entry are separate records, joined by “and”; a condition that tells them apart may be missing. Equal entries are not always repeated. Bounds are passed on as bounds.

Assay [1] addresses platelet glycoprotein Ib (GPIb) (human) (UniProt P07359).
Assay [2] shares this target. The source holds these as a separate data set.
The target is the same in assay [3]. This is another data set of the same source.
The target is the same in assay [4]. This is another data set of the same source.
The target is the same in assay [5]. This is another data set of the same source.
The target is the same in assay [6]. The source holds these as a separate data set.
For assay [7] the target is unchanged. The source holds these as a separate data set.
Assay [8] shares this target. The source holds these as a separate data set.
Assay [9] shares this target. The source holds these as a separate data set.
For assay [10] the target is unchanged. This is another data set of the same source.
The target is the same in assay [11]. As to the kind of experiment: platelet adhesion to immobilized VCL against immobilized albumin in a laminar flow cell.
Assay [12] has the same target. The source holds these as a separate data set.
For assay [13] the target is unchanged. As to the kind of experiment: platelet adhesion to immobilized VCL on a glass cover slip in a laminar flow cell.
In assay [14] the test system is rat platelet rich plasma (PRP). As to the kind of experiment: vWF-dependent platelet aggregation assay in platelet rich plasma (PRP). The format is cell-based. The conditions noted are these: ristocetin up to 5.0 mg/ml, no additional agent. The procedure:
This is a standardized von Willebrand Factor (vWF)-dependent aggregation assay using human or rat platelet rich plasma (PRP). The addition of various concentrations of unfractionated Bothrops jararaca venom (BJV), which includes botrocetin and an additional thrombin-like component, or ristocetin results in an aggregatory response in the absence of any additional agent. Using ristocetin (1.5 mg/ml) as the agonist 43 μg/ml VCL abolished the aggregation of human PRP.

In turn, “VCL, a vWF GPIb binding domain polypeptide (methionine plus amino acids 504-728 of mature human vWF) (ligand)” came in with a platelet adhesion to immobilized vWF in a laminar flow cell in assay [1] of 25 % inhibition. Also, the platelet adhesion to immobilized collagen (type I) in a laminar flow cell in [2] was 50 % inhibition. Further, the platelet adhesion to immobilized fibronectin in a laminar flow cell in [3] was 80 % inhibition. This substance also gave a % Inhibition of Platelet Aggregation (ristocetin induced, washed human platelets with intact vWF) in assay [4] of 100%. In [5], the platelet adhesion to endothelial cell extracellular matrix (ECM) in a laminar flow cell came out at 70 % inhibition. Also, in assay [6], the platelet deposition on damaged porcine aorta perfused ex vivo with normal human blood stood at 60 % reduction. Further, the platelet adhesion to immobilized fibrinogen in a laminar flow cell in assay [7] came out at 75 % inhibition. In assay [8], the % Inhibition of Platelet Aggregation (asialo-vWF induced, in PRP) is 76%. In assay [9], the Dissolution of preformed aggregates (made by RIPA) was 0.5 µM VCL; the IC50, Asialo vWF induced platelet aggregation worked out at 0.15 µM VCL; the IC50, Platelet deposition under conditions of flow (everted denuded human umbilical artery, whole human blood) turned out to be 1 µM VCL; the IC50, Ristocetin induced platelet aggregation was 0.2 µM VCL and 0.3 µM VCL. This substance also displayed an IC50, Thrombin induced platelet aggregation in assay [9] of 0.3 µM VCL. In [10], this substance yielded a Ristocetin induced platelet aggregation (RIPA) of 100 % inhibition. Also, in assay [11], the fold of adhesion to albumin was determined as 10 fold. The substance further returned an IC50, platelet adhesion to ECM at a shear rate of 1300 s^-1 in assay [12] of 800 nM. In assay [13], the percent coverage of the test surface by platelets was less than 5 % coverage.
Take ristocetin: the “Aggregation of rat PRP induced by ristocetin” value in [14] was “did not cause measurable aggregation”.
